# Measurements published in publication PMC4422259, “Arc is a flexible modular protein capable of reversible self-oligomerization” (Biochemical Journal, 2015).
# Legend:
# [1] = biological target: the molecule itself; assay: dynamic light scattering; hArc 22 μM (1 mg/ml) in 10 mM potassium phosphate, pH 7.4, without salt, at 20°C and 90°C
# [2] = biological target: the molecule itself; assay: dynamic light scattering; hArc 22 μM (1 mg/ml) in 10 mM potassium phosphate, pH 7.4, at 36°C
protein,measurement,setting,value
"recombinant human Arc (activity-regulated cytoskeleton-associated protein), wild type, cleaved from the His-ZZ-hArc fusion protein (natural protein, UniProt Q7LC44 1-396, looked up, human Arc (activity-regulated cytoskeleton-associated protein); called full-length hArc; Vector pETZZ_1a; also called WT hArc; Arc/Arg3.1; source: E. coli BL21-CodonPlus, auto-induction medium, purified (Ni-NTA, TEV cleavage, second Ni-NTA flow-through); not shown: His, N-terminal, cleaved; ZZ domain, N-terminal, cleaved) MELDHRTSGGLHAYPGPRGGQVAKPNVILQIGKCRAEMLEHVRRTHRHLLAEVSKQVERELKGLHRSVGKLESNLDGYVPTSDSQRWKKSIKACLCRCQETIANLERWVKREMHVWREVFYRLERWADRLESTGGKYPVGSESARHTVSVGVGGPESYCHEADGYDYTVSPYAITPPPAAGELPGQEPAEAQQYQPWVPGEDGQPSPGVDTQIFEDPREFLSHLEEYLRQVGGSEEYWLSQIQNHMNGPAKKWWEFKQGSVKNWVEFKKEFLQYSEGTLSREAIQRELDLPQKQGEPLDQFLWRKRDLYQTLYVDADEEEIIQYVVGTLQPKLKRFLRHPLPKTLEQLIQRGMEVQDDLEQAAEPAGPHLPVEDEAETLTPAPNSESVASDRTQPE",stoichiometry N,[1],≥ 40 subunits
same,stoichiometry N,[2],> 12 subunits
